Data on one molecule can be found in article PMC8450099.

Like-named read-outs stand apart in the source and are kept apart here.

As a reminder, the Kd is the constant that tells how readily two partners part at equilibrium. Read a high Kd as weaker binding.

Assay in all cases: MST
The target of data set [1] is T1, Mlh1-FKBP464 (Complex #2 subunit);Pms1-FRB627 (Complex #2 subunit) (Saccharomyces cerevisiae (baker's …, UniProt P38920;P14242 1-464+=GS+P62942:2-108+=GS+465-769;1-627+=[…]+628-873, internal_change|internal_change).
The target in data set [2] is T2, Mlh1-FRB355,FKBP464 (Complex #1 subunit);Pms1 (Saccharomyces cerevisiae (baker's …, UniProt P38920;P14242 1-355+=[…]+356-464+=GS+P62942:2-108+=GS+465-769;1-873, internal_change|).
Data set [3] addresses T3, Mlh1;Pms1 (Saccharomyces cerevisiae (baker's …, UniProt P38920;P14242 1-769;1-873, |)).
Data set [4] concerns the target T4, Mlh1-FRB355 (Complex #5 subunit);Pms1-FKBP460 (Complex #5 subunit) (Saccharomyces cerevisiae (baker's …, UniProt P38920;P14242 1-355+=[…]+356-769;1-460+=GS+P62942:2-108+=GS+461-873, internal_change|internal_change).
Data set [5] deals with T1, Mlh1-FKBP464 (Complex #2 …). This is another data set of the same source.
Data set [6] addresses T2, Mlh1-FRB355,FKBP464 (Complex #1 …). This is another data set of the same source.
Data set [7] has as its target T3, Mlh1;Pms1. The source holds these as a separate data set.
Data set [8] addresses T1, Mlh1-FKBP464 (Complex #2 …). This is another data set of the same source.
Data set [9] addresses T2, Mlh1-FRB355,FKBP464 (Complex #1 …). The source holds these as a separate data set.
Data set [10] concerns the target T3, Mlh1;Pms1. This is another data set of the same source.
Data set [11] has as its target T4, Mlh1-FRB355 (Complex #5 …). The source holds these as a separate data set.
Data set [12] deals with T1, Mlh1-FKBP464 (Complex #2 …). The source holds these as a separate data set.
Data set [13] deals with T3, Mlh1;Pms1. This is another data set of the same source.

B1: homoduplex AO4549/AO4548 (48-mer in Methods, called 49 bp in Results) (dsDNA)
DNA 1: CTGGACGGGTTAAGACCGAACGTGGCTCCAGAAACGGGTGCAACTGGG
DNA 2: CCCAGTTGCACCCGTTTCTGGAGCCACGTTCGGTCTTAACCCGTCCAG
For B1, the Kd was determined as 431 nM in data set [1]; 421 nM in data set [2]; 675 nM with Mlh1;Pms1 [3]; 556 nM in data set [4]; 211 nM in data set [5]; 198 nM in data set [6]. Besides, the Kd worked out at 173 nM in the data set with Mlh1;Pms1 [7]; 207 nM in data set [8]; 98.4 nM in data set [9]; 141 nM with Mlh1;Pms1 [10]; 287 nM in [11]; 391 nM in [12]. The same molecule yielded a Kd with Mlh1;Pms1 [13] of 628 nM.
